For the data set, the target named is MYB44 (Arabidopsis thaliana? (Arabidopsis, …, UniProt Q9FDW1 1-305)). In words: EMSA; no competitor; unlabelled MBSII 100x blocks the shift; unchanged with GST-MPK3 and/or GST-MKK4, with or without 0.5 mM ATP; 10 mM Tris pH 8.0, 5 mM MgCl2, 100 mM KCl, 0.02% Triton X-100, 0.1 mg/ml BSA, 0.25% Tween, 2.5 mM DTT, 3 ng/ul poly(dIdC); 30 min room temperature; 5% PAGE in 0.5x TBE or TAE (TAE main) at 4 C. The conditions noted are these: protein: recombinant; label: 5' Dy782 (Methods; called IRDye in Results); (only one strand printed). On the technique in general: In EMSA bound probe runs differently from free probe, usually more slowly.
Chain of MYB44 (Arabidopsis thaliana? (Q9FDW1 whole entry): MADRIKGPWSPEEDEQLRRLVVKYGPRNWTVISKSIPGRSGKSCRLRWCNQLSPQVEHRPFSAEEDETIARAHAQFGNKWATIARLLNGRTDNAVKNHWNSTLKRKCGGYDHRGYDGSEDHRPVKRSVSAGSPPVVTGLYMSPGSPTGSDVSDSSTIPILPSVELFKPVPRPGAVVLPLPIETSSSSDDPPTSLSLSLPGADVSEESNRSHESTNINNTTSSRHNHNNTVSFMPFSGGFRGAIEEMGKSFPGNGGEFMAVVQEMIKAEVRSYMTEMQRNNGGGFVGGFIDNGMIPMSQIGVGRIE

B1: MBSII (dsDNA)
DNA 1: AGCTTCAAAAGTTAGTTACG
DNA 2: CGTAACTAACTTTTGAAGCT
Consider B1, for which the binding result is recorded as “binds”.

(Values after PMC3578790, “Tight Interconnection and Multi-Level Control of Arabidopsis MYB44 in MAPK Cascade Signalling”.)
